According to PMC5009728 (Nucleic Acids Research, 2016):
One block for each molecule: values may come before it.

Legend:
[1] = target: 6×His-thioredoxin-fused ZAD domain of Zw5 (aa 1–103) (Drosophila melanogaster); test: cross-linking
cross-linking = target: the molecule itself; test: cross-linking

stoichiometry N [1]: 2
Molecule: 6×His-thioredoxin-fused ZAD domain of Zw5 (aa 1–103) (domain or fragment)

B1: 6×His-thioredoxin-fused ZAD domain of Grauzone (aa 1–84) (domain or fragment, Drosophila melanogaster, UniProt Q9U405 1-84, looked up)
chain: MDICRLCLRGVSGAQMCLQIFDVDSGESKVAEVLRQHFWFEVLPNDEISKVICNVCWTQVSEFHQFYVSIQEAQVIYATTSKFK
stoichiometry N (cross-linking): 2

B2: 6×His-thioredoxin-fused ZAD domain of ZIPIC (aa 3–81) (domain or fragment, Drosophila, UniProt Q9VAB8 3-81, looked up)
chain: CCICQFSVRVPKDIHTDTVGHPPVLISELVLQCTRGTNYVLTEESSTICKKCCEKLARYHKSIQIARKLRGEILELIHS
stoichiometry N (cross-linking): 2

B3: 6×His-thioredoxin-fused ZAD domain of Pita (aa 1–109) (domain or fragment, Drosophila melanogaster, UniProt Q95RQ8 1-109, looked up)
chain: MAAKLEVREAMLTEKRVCRFCLTEQKLASIFEENPRVKTTANLPLQIMAITAIEVYAGDGMPGHICLECRLLFEHCYRFKQMCKRAETLLRQYPLTGNWPSPLEKPRAP
stoichiometry N (cross-linking): 2
